{
  "source": "paper PMC10132805",
  "key": {"[1]": {"biological_target": "V domain of programmed cell death 6-interacting protein (ALIX V) (human) (UniProt Q8WUM4)", "sequence (Q8WUM4 whole entry)": "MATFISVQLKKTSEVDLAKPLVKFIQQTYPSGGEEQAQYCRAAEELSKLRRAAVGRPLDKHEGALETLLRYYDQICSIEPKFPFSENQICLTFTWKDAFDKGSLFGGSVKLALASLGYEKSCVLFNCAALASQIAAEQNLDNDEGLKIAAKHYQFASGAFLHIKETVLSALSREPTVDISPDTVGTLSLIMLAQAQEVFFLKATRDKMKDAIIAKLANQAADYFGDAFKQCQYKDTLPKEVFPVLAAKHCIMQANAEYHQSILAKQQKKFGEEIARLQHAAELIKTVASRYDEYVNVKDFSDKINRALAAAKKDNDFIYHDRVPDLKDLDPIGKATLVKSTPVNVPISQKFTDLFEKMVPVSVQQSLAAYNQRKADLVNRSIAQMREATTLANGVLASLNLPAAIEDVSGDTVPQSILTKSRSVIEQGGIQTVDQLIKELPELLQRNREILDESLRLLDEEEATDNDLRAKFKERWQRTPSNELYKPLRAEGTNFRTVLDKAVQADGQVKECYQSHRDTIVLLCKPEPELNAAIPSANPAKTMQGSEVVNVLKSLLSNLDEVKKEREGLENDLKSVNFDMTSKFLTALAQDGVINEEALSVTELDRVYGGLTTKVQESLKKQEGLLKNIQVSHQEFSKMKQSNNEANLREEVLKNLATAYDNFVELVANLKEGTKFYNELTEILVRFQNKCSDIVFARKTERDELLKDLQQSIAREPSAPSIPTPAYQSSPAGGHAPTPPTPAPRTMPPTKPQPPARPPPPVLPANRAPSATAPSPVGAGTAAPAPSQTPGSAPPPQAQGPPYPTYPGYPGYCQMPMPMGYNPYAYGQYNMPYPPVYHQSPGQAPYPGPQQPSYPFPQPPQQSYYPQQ"}, "[2]": {"biological_target": "E3 ubiquitin-protein ligase NEDD4 WW2 domain (human)", "sequence (P46934 whole entry, the tested form may be a part)": "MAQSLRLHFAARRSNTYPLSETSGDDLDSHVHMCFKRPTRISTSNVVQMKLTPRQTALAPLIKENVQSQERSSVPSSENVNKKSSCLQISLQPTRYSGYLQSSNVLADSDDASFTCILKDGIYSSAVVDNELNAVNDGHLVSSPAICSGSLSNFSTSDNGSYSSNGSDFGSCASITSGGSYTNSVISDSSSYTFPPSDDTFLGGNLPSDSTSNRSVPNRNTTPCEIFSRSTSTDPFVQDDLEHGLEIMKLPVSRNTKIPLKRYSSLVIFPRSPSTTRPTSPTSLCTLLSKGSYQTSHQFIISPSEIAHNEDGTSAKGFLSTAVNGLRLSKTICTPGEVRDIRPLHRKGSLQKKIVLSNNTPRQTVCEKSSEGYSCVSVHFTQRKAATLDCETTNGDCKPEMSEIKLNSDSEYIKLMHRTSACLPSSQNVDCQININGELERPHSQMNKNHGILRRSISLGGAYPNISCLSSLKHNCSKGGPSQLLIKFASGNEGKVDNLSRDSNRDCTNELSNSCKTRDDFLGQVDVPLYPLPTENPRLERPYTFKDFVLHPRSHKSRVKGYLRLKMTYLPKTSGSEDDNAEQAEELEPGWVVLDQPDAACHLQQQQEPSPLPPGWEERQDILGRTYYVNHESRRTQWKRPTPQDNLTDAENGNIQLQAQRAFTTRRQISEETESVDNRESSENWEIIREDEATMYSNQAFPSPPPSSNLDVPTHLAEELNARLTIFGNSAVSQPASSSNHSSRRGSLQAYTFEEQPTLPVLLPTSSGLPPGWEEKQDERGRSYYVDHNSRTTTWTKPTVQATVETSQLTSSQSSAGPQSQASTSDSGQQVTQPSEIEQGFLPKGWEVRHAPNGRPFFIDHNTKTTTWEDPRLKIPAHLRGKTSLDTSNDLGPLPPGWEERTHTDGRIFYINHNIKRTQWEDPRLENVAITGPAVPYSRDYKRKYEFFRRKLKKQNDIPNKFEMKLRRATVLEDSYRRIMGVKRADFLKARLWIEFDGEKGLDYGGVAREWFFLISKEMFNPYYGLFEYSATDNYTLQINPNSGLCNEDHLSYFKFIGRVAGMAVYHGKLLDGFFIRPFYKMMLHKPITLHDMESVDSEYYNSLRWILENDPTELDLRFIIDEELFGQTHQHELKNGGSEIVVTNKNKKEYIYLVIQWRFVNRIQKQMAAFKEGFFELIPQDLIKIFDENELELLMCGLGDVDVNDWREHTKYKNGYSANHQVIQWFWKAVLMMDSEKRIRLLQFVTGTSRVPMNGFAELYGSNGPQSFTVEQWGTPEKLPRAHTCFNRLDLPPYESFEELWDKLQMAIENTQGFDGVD"}, "[3]": {"biological_target": "E3 ubiquitin-protein ligase NEDD4 WW4 domain (human)", "sequence (P46934 whole entry, the tested form may be a part)": "as above"}, "[4]": {"biological_target": "N-terminal domain of clathrin (CLTC NTD) (human) (UniProt Q00610)", "sequence (Q00610 whole entry, the tested form may be a part)": "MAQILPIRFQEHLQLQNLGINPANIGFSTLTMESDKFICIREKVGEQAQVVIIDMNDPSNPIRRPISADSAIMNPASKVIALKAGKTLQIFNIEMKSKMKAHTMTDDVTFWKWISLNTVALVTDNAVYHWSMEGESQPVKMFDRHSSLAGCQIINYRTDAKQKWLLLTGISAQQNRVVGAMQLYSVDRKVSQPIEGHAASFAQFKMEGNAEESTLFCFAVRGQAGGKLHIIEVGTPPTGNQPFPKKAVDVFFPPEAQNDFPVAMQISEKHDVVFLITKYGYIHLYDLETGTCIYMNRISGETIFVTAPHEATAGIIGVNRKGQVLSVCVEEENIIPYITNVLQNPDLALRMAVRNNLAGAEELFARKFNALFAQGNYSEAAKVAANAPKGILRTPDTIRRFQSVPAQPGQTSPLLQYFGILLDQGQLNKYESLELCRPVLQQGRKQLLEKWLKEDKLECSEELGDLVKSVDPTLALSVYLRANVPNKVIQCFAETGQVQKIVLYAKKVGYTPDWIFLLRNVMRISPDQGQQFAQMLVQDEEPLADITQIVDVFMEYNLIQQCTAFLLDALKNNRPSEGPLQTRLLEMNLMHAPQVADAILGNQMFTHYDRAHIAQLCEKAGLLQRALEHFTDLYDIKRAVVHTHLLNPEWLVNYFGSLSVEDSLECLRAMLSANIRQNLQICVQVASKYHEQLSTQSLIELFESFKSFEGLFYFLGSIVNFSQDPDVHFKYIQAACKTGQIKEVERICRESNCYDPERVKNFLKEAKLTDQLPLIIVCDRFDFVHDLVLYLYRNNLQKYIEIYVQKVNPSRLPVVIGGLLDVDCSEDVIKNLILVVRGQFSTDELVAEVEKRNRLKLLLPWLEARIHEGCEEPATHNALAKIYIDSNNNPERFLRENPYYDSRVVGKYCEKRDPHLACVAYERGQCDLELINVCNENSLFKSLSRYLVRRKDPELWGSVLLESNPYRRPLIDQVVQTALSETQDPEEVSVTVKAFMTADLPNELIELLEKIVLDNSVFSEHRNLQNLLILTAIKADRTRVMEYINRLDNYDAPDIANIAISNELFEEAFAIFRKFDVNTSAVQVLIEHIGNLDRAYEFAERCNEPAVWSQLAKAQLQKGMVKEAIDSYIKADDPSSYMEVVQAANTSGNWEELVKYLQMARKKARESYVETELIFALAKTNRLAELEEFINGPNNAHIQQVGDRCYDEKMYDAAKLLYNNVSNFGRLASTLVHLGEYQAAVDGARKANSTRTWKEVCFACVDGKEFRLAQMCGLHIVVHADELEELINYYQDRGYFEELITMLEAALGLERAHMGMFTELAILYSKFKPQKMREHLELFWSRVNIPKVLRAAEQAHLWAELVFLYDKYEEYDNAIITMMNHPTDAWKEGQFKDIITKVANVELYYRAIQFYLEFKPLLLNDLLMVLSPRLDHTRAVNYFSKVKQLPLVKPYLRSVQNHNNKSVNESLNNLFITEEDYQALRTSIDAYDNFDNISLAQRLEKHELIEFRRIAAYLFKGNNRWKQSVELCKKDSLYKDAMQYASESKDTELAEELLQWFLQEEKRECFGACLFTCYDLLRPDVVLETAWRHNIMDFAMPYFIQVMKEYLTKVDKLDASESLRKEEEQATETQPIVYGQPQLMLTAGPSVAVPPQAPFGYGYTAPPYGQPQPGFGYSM"}},
  "data": [
    {"binder": "PPPVLYPNLAELENYM", "note": "[SDCBP2 39-54 (Human)]", "values": [
      {"measurement": "Kd", "setting": "[1]", "result": 2.1, "unit": "µM"}
    ]},
    {"binder": "MSSLYPSLEDLKVDQA", "note": "[SDCBP2 1-16 (Human)]", "values": [
      {"measurement": "Kd", "setting": "[1]", "result": 0.29, "unit": "µM"}
    ]},
    {"binder": "EPDQEPPPPYQEQVPV", "note": "[RNF11 31-56 (Human)]", "values": [
      {"measurement": "Kd", "setting": "[2]", "result": 13, "unit": "µM"},
      {"measurement": "Kd", "setting": "[3]", "result": 44, "unit": "µM"}
    ]},
    {"binder": "EPDQEPPPPYQEQVPVPVYHPTPSQ", "note": "[RNF11 31-65 (Human)]", "values": [
      {"measurement": "Kd", "setting": "[2]", "result": 15, "unit": "µM"},
      {"measurement": "Kd", "setting": "[3]", "result": 35, "unit": "µM"}
    ]},
    {"binder": "GDLLGDLLNLDLGPPVY", "note": "[AP1B1 626-641 (Human)]", "values": [
      {"measurement": "Kd", "setting": "[4]", "result": 300, "unit": "µM"}
    ]},
    {"binder": "VPVDTNLIEFDTNYAT", "note": "[ARRB2 367-382 (Human)]", "values": [
      {"measurement": "Kd", "setting": "[4]", "result": 40, "unit": "µM"}
    ]}
  ]
}
